According to PMC4236683, “Semaphorin 5A inhibits synaptogenesis in early postnatal- and adult-born hippocampal dentate granule cells” (eLife, 2014):

Assays:
[1] = target: T1, full-length PlexA2 with an N-terminal 6xMyc tag (mouse, UniProt P70207 35-1894); assay: saturation binding of AP-clustered Fc fusion protein to transfected cells; saturation binding curve of Sema5A-Fc, oligomerized with anti-Fc conjugated to human placental alkaline phosphatase, on COS7 cells expressing PlexA1 or PlexA2; settings: one partner purified
T1 construct: Plexin-A2, mouse, full length (FL); written as one molecule; also called PlexinA2; Myc-FL-A2; source: COS7, transiently transfected, on cells; HEK293T, transfected, in lysate; not shown: 6xMyc, N-terminal, kept

[2] = target: T2, full-length PlexA1 with an N-terminal 6xMyc tag (mouse, UniProt P70206 28-1894); assay: as above; settings: one partner purified
T2 construct: Plexin-A1, mouse, full length (FL); written as one molecule; also called PlexinA1; Myc-FL-A1; source: COS7, transiently transfected, on cells; HEK293T, transfected, in lysate; not shown: 6xMyc, N-terminal, kept
T2 sequence (P70206 28-1894): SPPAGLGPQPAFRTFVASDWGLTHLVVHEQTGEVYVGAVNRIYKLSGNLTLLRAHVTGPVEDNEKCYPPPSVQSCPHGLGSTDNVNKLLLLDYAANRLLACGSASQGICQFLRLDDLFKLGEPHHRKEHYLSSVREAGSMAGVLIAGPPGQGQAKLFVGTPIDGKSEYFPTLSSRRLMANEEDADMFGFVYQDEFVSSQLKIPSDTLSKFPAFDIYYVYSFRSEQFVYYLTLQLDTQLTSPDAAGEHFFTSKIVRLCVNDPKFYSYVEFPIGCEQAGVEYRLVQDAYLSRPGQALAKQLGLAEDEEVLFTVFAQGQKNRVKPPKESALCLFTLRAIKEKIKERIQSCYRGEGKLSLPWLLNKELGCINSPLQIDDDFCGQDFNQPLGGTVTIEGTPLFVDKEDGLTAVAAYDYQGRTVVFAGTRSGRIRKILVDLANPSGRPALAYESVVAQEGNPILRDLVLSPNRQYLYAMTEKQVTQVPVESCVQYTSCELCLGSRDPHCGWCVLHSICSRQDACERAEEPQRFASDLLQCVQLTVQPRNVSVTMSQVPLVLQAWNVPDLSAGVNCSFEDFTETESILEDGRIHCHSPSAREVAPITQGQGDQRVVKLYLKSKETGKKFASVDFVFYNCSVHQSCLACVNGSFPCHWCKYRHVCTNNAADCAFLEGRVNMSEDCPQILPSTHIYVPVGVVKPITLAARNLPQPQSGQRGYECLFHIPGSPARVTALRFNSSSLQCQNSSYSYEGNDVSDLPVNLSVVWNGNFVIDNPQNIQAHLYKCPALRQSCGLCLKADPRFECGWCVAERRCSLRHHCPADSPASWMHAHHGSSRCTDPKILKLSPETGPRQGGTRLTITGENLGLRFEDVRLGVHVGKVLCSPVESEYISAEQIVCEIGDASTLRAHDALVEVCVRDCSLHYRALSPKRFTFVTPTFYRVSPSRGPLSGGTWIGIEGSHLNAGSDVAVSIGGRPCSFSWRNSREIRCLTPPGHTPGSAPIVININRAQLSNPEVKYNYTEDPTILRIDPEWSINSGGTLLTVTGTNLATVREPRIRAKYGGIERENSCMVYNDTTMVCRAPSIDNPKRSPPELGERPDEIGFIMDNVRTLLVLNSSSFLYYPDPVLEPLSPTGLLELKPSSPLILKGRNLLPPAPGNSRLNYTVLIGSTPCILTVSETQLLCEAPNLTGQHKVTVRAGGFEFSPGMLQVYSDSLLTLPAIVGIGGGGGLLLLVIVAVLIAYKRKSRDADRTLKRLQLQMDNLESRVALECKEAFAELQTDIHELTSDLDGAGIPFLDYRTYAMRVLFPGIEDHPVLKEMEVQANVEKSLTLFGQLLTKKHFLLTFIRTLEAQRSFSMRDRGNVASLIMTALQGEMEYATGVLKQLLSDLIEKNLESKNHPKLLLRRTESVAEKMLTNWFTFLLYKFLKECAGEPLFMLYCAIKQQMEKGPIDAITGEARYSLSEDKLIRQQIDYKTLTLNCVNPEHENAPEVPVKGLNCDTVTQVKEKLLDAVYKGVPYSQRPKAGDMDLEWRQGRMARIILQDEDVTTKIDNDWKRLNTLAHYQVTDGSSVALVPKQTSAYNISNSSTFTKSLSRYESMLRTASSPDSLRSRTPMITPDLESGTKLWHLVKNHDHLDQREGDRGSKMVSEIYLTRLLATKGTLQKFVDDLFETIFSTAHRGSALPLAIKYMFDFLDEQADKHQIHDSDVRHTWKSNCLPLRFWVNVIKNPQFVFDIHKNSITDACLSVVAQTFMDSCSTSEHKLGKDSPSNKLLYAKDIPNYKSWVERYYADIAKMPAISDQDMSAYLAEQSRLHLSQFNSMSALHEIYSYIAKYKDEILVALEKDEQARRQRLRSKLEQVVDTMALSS

T1 sequence (P70207 35-1894): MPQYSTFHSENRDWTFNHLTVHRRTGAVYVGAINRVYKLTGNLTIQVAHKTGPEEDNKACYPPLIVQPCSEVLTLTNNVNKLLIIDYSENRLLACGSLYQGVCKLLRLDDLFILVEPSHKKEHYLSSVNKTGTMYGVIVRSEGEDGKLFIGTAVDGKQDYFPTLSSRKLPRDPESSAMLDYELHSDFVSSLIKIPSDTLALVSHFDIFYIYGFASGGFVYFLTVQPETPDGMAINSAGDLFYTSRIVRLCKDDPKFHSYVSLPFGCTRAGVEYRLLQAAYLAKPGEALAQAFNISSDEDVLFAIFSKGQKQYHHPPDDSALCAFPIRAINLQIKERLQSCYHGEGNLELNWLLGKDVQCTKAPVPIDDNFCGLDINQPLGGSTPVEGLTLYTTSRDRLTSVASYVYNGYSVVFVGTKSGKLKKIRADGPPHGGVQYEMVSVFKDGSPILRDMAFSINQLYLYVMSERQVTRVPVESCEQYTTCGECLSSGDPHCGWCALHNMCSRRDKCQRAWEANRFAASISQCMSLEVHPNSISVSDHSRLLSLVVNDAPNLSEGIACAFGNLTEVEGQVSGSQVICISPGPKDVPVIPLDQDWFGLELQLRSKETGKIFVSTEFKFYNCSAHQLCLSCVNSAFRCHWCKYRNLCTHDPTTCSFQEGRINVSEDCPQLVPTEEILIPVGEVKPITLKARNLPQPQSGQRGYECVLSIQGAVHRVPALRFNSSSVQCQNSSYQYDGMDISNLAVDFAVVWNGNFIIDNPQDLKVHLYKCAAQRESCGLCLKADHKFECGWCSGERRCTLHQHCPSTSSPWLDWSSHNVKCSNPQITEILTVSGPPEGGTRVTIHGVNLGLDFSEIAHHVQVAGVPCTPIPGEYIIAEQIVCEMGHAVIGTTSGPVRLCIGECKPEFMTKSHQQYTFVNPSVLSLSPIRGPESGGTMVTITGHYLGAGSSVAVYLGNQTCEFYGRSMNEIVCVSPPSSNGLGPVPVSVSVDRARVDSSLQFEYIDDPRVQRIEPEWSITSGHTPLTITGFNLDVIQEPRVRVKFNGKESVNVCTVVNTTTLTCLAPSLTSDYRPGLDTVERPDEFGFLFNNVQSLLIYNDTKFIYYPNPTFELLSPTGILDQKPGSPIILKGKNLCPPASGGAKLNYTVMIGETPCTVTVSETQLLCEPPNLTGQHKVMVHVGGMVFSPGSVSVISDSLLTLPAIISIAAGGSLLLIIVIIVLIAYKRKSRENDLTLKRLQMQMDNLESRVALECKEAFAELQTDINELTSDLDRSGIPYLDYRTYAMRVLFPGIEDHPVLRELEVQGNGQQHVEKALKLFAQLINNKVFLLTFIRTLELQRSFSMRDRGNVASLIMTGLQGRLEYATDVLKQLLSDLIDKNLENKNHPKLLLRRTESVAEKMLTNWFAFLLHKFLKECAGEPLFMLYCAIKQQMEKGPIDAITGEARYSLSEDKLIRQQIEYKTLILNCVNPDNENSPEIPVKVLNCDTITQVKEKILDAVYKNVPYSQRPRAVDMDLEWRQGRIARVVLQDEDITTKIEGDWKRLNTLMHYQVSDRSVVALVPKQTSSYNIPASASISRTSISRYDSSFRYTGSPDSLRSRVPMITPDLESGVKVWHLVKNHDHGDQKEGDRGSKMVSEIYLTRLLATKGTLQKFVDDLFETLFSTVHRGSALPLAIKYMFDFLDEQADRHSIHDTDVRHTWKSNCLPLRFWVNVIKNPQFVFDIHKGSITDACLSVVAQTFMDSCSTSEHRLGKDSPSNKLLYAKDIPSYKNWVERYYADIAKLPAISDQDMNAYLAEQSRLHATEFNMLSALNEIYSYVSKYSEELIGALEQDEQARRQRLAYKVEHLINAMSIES

B1: Sema5A-Fc (Sema5A ectodomain fused to Fc) (Fc fusion, rat, UniProt D3ZTD8 23-961, looked up)
chain: ETQDPAKCQRAEHPVVSYKEIGPWLREFRAENAVDFSRLTFDPGQKELVVGARNYLFRLQLEDLSLIQAVQWECDEATKKACYSKGKSKEECQNYIRVLLVGGDRLFTCGTNAFTPVCTIRSLSNLTEIHDQISGMARCPYSPQHNSTALLTASGELYAATAMDFPGRDPAIYRSLGTLPPLRTAQYNSKWLNEPNFVSSYDIGNFTYFFFRENAVEHDCGKTVFSRAARVCKNDIGGRFLLEDTWTTFMKARLNCSRPGEVPFYYNELQSTFFLPELDLIYGIFTTNVNSIAASAVCVFNLSAISQAFNGPFKYQENSRSAWLPYPNPNPNFQCGTMDQGLYVNLTERNLQDAQKFILMHEVVQPVTTVPSFMEDNSRFSHVAVDVVQGRDTLVHIIYLATDYGTIKKVRAPLSQSSGSCLLEEIELFPERKSEPIRSLKILHSQSVLFVGLQEHVVKIPLKRCHFHQTRGACIGAQDPYCGWDAVMKKCTSLEESLSMTQWDQSVPTCPTRNLTVDGSFGPWSPWTPCTHTDGTAVGSCLCRSRSCDSPAPQCGGWQCEGPRMEITNCSRNGGWTPWTSWSPCSTTCGIGFQVRQRSCSNPTPRHGGRVCVGQNREERYCNEHLLCPPHVFWTGWGPWERCTAQCGGGIQARRRTCENGPDCAGCNVEYQPCNTNACPELKKTTPWTPWTPVNISDNGGHYEQRFRYTCKARLPDPNLLEVGRQRIEMRYCSSDGTSGCSTDGLSGDFLRAGRYSAHTVNGAWSAWTSWSQCSRDCSRGIRNRKRVCNNPEPKYGGMPCLGPSLEFQECNILPCPVDGVWSCWSSWSKCSATCGGGHYMRTRSCTNPAPAYGGDICLGLHTEEALCNTQTCPENWSEWSEWSVCDASGTQVRTRQCILLFPVGSQCSGNTTESRPCVFDSNFIPEVSVARSSSVEEK
notes: signal peptide in the construct; Sema5A ectodomain, rat cDNA NM_001107659, residues 1-961; Assembled in pcDNA3.0; also called Fc-tagged Sema5A ectodomain protein
A Kd [1] of 13 nM and a Kd [2] of 10 nM were found for B1 in this work.
